Measured values taken from the RNAGym collection of RNA variant scans (doi:10.1073/pnas.2313332121).
Variants at the floor of the assay were thinned out.

B1: TPR 5TU (parent)
chain: GGAUCUUCUCGAUCUAACAAAAAAGACAAAUCUGCCACAAAGCUUGAGAGCAUCUUCGGAUGCAGAGGCGGCAGCCUUCGGUGGCGCGAUAGCGCCAACGUUCUCAACUAUGACACGCAAAACGCGUGCUCCGUUGAAUGGAGUUUAUCAUG

Variants of: B1
Assay: polymerase ribozyme fitness, log enrichment relative to wild type (log ratio); higher = more active; in vitro selection for triplet polymerase activity
How it was run: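 Streptavidin-bead capture of gel-excised extended constructs, followed by RT-PCR, closed a single triplicate in vitro selection round. That round began by annealing PCR-built, transcribed mutant libraries of each subunit of a heterodimeric triplet polymerase ribozyme with a biotinylated primer, the partner subunit and triplets, then incubating them frozen at −7 °C. After Illumina sequencing of inputs and outputs, genotypes needed ≥10 input reads and ≥1 read per output. Fitness is the base-2 logarithm of genotype enrichment over wild-type enrichment, using inverse-variance-weighted replicate averages.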

| Variant | polymerase ribozyme fitness (log ratio) |
| --- | --- |
| A21C G94A U148A | -3.72 |
| C57A U145C | 0.674 |
| G34C C85G G141U | -4.04 |
| G11A C85A A121U C149U | -2.75 |
| G83C G124A A137G | -1.97 |
| A73U G141A | -2.24 |
| G71U G80C C93U A97U C132A | ≤ -4.2 |
| A39G A49G C69U C123G G140C G141U | ≤ -4.2 |
| G59C C93U G124C C125U A147U | -0.985 |
| C57G C87U | -2.97 |
| U44A G86C A120C U146C | ≤ -4.2 |
| C18U C87U C99G | -2.1 |
| A16C A22C U82G C85U A98C G136U | ≤ -4.2 |
| A115U G141U | -1.29 |
| U55A U56A C57A C85U G86A C103G | ≤ -4.2 |
| A20U A26U A40C U44A C105G C114U C116A | ≤ -4.2 |
| G133U | -2.62 |
| A12U C32A A41C C103U | ≤ -4.2 |
| U61A A89C A106C U148A | ≤ -4.2 |
| C14A A20G C79A G94C G141A | ≤ -4.2 |
| C18U A30U C99G A106U | ≤ -4.2 |
| C18U A29U A91U A107U | ≤ -4.2 |
| U56G G62C A120C C132A U139G | ≤ -4.2 |
| A47G C85U | -1.36 |

| Variant | polymerase ribozyme fitness (log ratio) |
| --- | --- |
| G11C C93A C125U | ≤ -4.2 |
| U6G U9G U31A G48A C76G C87A U111C G140U | ≤ -4.2 |
| G46A G88U C132U | ≤ -4.2 |
| G83A G136A | -0.0141 |
| C85U A119C C131G G141C | -0.0963 |
| A20G A23C U53A G92A C93A C95U G141A | ≤ -4.2 |
| A41C G81C U82C A97C | -0.593 |
| C76A C87G | -4.07 |
| G80C A113G U134A | ≤ -4.2 |
| A16U A52C | -2.96 |
| U6C U45A | -3.75 |
| A17G A47C U130A | -4.1 |
| A20U A49G | -1.2 |
| C38A C63A U90A G124U | ≤ -4.2 |
| U44A A49C C54G C57U G58C C95G C96U | ≤ -4.2 |
| U15C C54A C57G C87U A150G | -3.99 |
| C54G U56G G92A | ≤ -4.2 |
| A30C C36A A52G C108A G152A | ≤ -4.2 |
| A40G U45A U55G G68C A91C U102G G126A C149G | ≤ -4.2 |
| A52G U53G U77G C131G | ≤ -4.2 |
| C18A C36A G58A A64U C85A | ≤ -4.2 |
| A17U A24C C32A G100A | ≤ -4.2 |
| G11U A29U U55G G92U C93G C95A G133A U144A A150C | ≤ -4.2 |
| A49G A115U | -2.35 |

| Variant | polymerase ribozyme fitness (log ratio) |
| --- | --- |
| U33A U55G A73G G83U G86U A89U G136A | ≤ -4.2 |
| G83A C87U A106C C125G G152A | -3.25 |
| A47C G58C A97G C99G C129A G133U | ≤ -4.2 |
| A52C G94C | -2.26 |
| A49U A52C A89G C95U | -2.69 |
| C57A C93A A106U A122U | -2.85 |
| U56G G83A C87G A120U U135C | ≤ -4.2 |
| G25C C99U | -3.13 |
| G50C G86A U102A G143U | ≤ -4.2 |
| C85U G88A | -3.73 |
| G34U G48U G59C G67C G81C U134A G141U | ≤ -4.2 |
| A12G A17C G50C C63G C96U | -0.474 |
| A37C A73G G86A | -2.34 |
| A24G G25U C75G G80A C85G U130A A142C | ≤ -4.2 |
| C8U A17G C36A G50C A115G | ≤ -4.2 |
| U55A G84U G124A | -1.26 |
| A41G A52G U77G C87U G100C C103G A138G | ≤ -4.2 |
| G59A A60G U77G U127C | ≤ -4.2 |
| U4G U13C A19G A52G U56G A64U G80C A91G C95G C105U U109A A119U | ≤ -4.2 |
| C87U A98U | -1.16 |
| C5A C93U A98G C103A | -3.31 |
| C38A G80A G94A A97G C99G C131U G133C | ≤ -4.2 |
| U15C C36A U55A A106U C108U A115G G117U G140A | ≤ -4.2 |
| A21C C87U A89C A98G G112U | ≤ -4.2 |

| Variant | polymerase ribozyme fitness (log ratio) |
| --- | --- |
| C69G G71U G140A | ≤ -4.2 |
| A47C G48U C75U U77A G83C C96A C99A | ≤ -4.2 |
| U55C A91G | -3.06 |
| G50A C95G A115U | ≤ -4.2 |
| G59U C132A | -2.09 |
| A41U C95U C99A U146G | -2.29 |
| U55G U61A | -3.22 |
| C76U G83C U134A A142U | ≤ -4.2 |
| C36A A89U C116A A120U | -4.18 |
| A19U A21U A39G C43A U45A A91G | ≤ -4.2 |
| A3G C51G A52C G84U U101G A107G | ≤ -4.2 |
| A16U G84U | -3.5 |
| C5A G68C G80C C85G A138G | ≤ -4.2 |
| C85G C103A G140U | ≤ -4.2 |
| C32G C76A C87A | ≤ -4.2 |
| A24C U31C G68U U78C C85U | ≤ -4.2 |
| U55A C87U A137C | -3.92 |
| C96U C125G | -0.976 |
| A49U C75U U102G | -2.65 |
| U53A C93U | -2.51 |
| C75U A110C U146G | ≤ -4.2 |
| U9C A37C A40G U53A C75U U77A A119U | ≤ -4.2 |
| C5G G59A | -0.858 |
| G25U G50U C76A C85U G86C G133C | ≤ -4.2 |

| Variant | polymerase ribozyme fitness (log ratio) |
| --- | --- |
| G59A A89G | -1.1 |
| A28U A41G G42C G94C | ≤ -4.2 |
| A3C C93G | ≤ -4.2 |
| G84A G141A | -0.675 |
| U53A G65C C85G A137U G140C | ≤ -4.2 |
| A26U A60C G80C A91U A121C | ≤ -4.2 |
| G133A | -3 |
| A29G A98G | ≤ -4.2 |
| C27G A28U G81C G141A | ≤ -4.2 |
| U7A C32U C35U U90C G141C G143C | ≤ -4.2 |
| U33G C43G A66G C93A C95U C118G | ≤ -4.2 |
| A52C G88A A113U A121C | ≤ -4.2 |
| C14G U45A C79U G88A U104G A113U | -4.17 |
| C14A A37U G84A C125U | -3.95 |
| U82C A89U C96G G100A A106U C114U A137C | ≤ -4.2 |
| A21C G34U U55A C132G U135A | ≤ -4.2 |
| G50C G86C | ≤ -4.2 |
| A28U G59A | ≤ -4.2 |
| C10A A12U A28C A29C A107G | ≤ -4.2 |
| C57A C85A A147G | -1.09 |
| A29C G46U U127G | ≤ -4.2 |
| C54A G124A C125U A147C | -2.1 |
| A19G A49G U56A A66G G67C C108U G136A C149A G152U | ≤ -4.2 |
| C35U A37G U61A A64U C149G | ≤ -4.2 |

| Variant | polymerase ribozyme fitness (log ratio) |
| --- | --- |
| U15C G88A | -3.6 |
| U55C G59C A107C C131U U134G G136C | ≤ -4.2 |
| C14U A30G G81A C85G A97G G133A | ≤ -4.2 |
| C57U C85A | -1.63 |
| G80A C85A A138G | -3.67 |
| C54U A73C G94U C116G C125A U134A | ≤ -4.2 |
| U31A C93A C129U | -2.44 |
| U56G C118U C123U | -0.604 |
| C57U G83C C87A G94U U146C | ≤ -4.2 |
| C5G A20U U33G A39C U55G C57A A91G A138C | ≤ -4.2 |
| U56A G136U | -2.72 |
| C51U U55A C96A | -1.8 |
| C10G U53A C54A G80C G84A C96G U104C C108U U145G | ≤ -4.2 |
| G94A G136U | -2.56 |
| C43U | -4.01 |
| G94C C96U G112C U146C | ≤ -4.2 |
| C5U C69A | -2.55 |
| C27G G50A G58A G83U | ≤ -4.2 |
| U6C A26G A29U A73G C96A U104G | -3.88 |
| C54U C118U U145A | -0.457 |
| A3G C85A | -1.17 |
| A29C A52G U61A A122U G141U | ≤ -4.2 |
| A23G G46A C87U C132G | ≤ -4.2 |
| U6G A73C | -2.87 |

| Variant | polymerase ribozyme fitness (log ratio) |
| --- | --- |
| C5A A20C A41G C93A A147C | -1.66 |
| U53A C54U C57A G62A C85A G126U | ≤ -4.2 |
| A12U U13A A91G C93A U102A | ≤ -4.2 |
| G42C G48U U61A A110U | ≤ -4.2 |
| A37G G92U | -2.01 |
| U6G A20U G25A U31G C87A C96U C129A G136A G140C A150C | ≤ -4.2 |
| C93U U148G | -3.7 |
| A106G U109C | -3.91 |
| C85U G140C | -2.76 |
| C57U G58A G83A G86A C118U C123A | -1.76 |
| U56C G83U | -0.525 |
| C32G U45A U56A A91U C93G A107C | ≤ -4.2 |
| C27A U44A U55A A66G C87U C95G A110G C114U U144A | ≤ -4.2 |
| C36U A49C C95A U145C | ≤ -4.2 |
| A28G U61G C75A C93U U104G U135A | ≤ -4.2 |
| C54A G94C A107C C108G | ≤ -4.2 |
| U6A G81C G94U A113U C114U U151C | ≤ -4.2 |
| A52C G84U C125U | -2.64 |
| C8G A40U U53A C87A C108G | ≤ -4.2 |
| A17G A39U G94U G141A | -4.08 |
| C85A U139C | -4.1 |
| A19G C57U G92A U104G C116U | -4.18 |
| C35U C93G A119G | -3.76 |
